Experiment: soluble on expression in E. coli; label from the status in PepcDB or PDB records

Sequence | soluble on expression in E. coli
MSLNITGIQSDWKVEKIEFAKLTGERARSAGANGRIGVHGKSCTVDIARITIDGQTGYGSSIHMTPEWAEDVIGRRLLDLFDDRGRLREAYRLQLEYPVLDWLGQRQGKPVYDLVSGAHLETGASLVVPCYDTSLYFDDLHLADERAAVALMQEEAMQGYAKGQRHFKIKVGRGGRHMPLWEGTKRDIAIVRGISEVAGPAGKIMIDANNAYNLNLTKEVLAALSDVNLYWLEEAFHEDEALYEDLKEWLGQRGQNVLIADGEGLASPHLIEWATRGRVDVLQYDIIWPGFTHWMELGEKLDAHGLRSAPHCYGNAYGIYASGHLSAAVRNFEFVEYDDITIEGMDVSGYRIENGEIHVPATPGFGIVFDDELVTYLINRSGWSEGHHHHHH | soluble
MSLYYICPYFLDKNGHRVQKTMVGKVALDEQKLTPQKFSITYPLIINLQDEKVKTKVNEDIVNQVSELFKNQVLLTEKIDLSEVFGAYEIGVNRNYILSILFSIYTYMNRAAHGLTVYSSITVNTRTGKVYSFSDLFNPKMNYLGELTTIVKKYIKDNNIQLIEDYKGVTNDQEFYLTNDKLVLYYQVYAYTPYYYGLFRIPIPYTEIKNLLGPMSPINNLIEGHHHHHH | not soluble
MPSRLHSAVMSGTRDGDLNAAIRTALGKVIDPELRRPITELGMVKSIDTGPDGSVHVEIYLTIAGCPKKSEITERVTRAVADVPGTSAVRVSLDVMSDEQRTELRKQLRGDTREPVIPFAQPDSLTRVYAVASGKGGVGKSTVTVNLAAAMAVRGLSIGVLDADIHGHSIPRMMGTTDRPTQVESMILPPIAHQVKVISIAQFTQGNTPVVWRGPMLHRALQQFLADVYWGDLDVLLLDLPPGTGDVAISVAQLIPNAELLVVTTPQLAAAEVAERAGSIALQTRQRIVGVVENMSGLTLPDGTTMQVFGEGGGRLVAERLSRAVGADVPLLGQIPLDPALVAAGDSGVPLVLSSPDSAIGKELHSIADGLSTRRRGLAGMSLGLDPTRR | not soluble
VELPTEYTEQFSSQPTLNSKPIIKFEFTGNSVDAPVLSMASKKFGIDFSILMSQIDYAGGVKFGFVIAEVEGDGEAITAAKCYLINNNVKVEVLGYVG | not soluble
MKLSEYGLQLQEKQKLRHMYGVNERQFRKTFEEAGKMPGKHGENFMILLESRLDNLVYRLGLARTRRQARQLVTHGHILVDGSRVNIPSYRVKPGQTIAVREKSRNLQVIKEALEANNYIPDYLSFDPEKMEGTYTRLPERSELPAEINEALIVEFYSR | soluble
MVRIRWFFIRHAESEANVVERWRIAGRSEAARLTERGERQARVVGEAVAIRLEQVLRVDGGDAGGVSGDAGRRRVLAPVAFTSPLLRARQTAALVLEQVAQPVKLEPVDDLAEVYQGLWEDALRSEVHTPETLQAMARNPYEFRAPGGEAQADVERRVLRAVSRMSQRVLSLLSLELEENEQTDVIVLVFTHGYVCKCLIRSVLDASPHLTGQIQVDNGALVELWLEPAAQQGALTSAAELGMWTVLRINDTWGQLTASMR | not soluble
MMKEFTPAPDSASIVSVTDRVKPVALGMGVTSVHFLGDRAAFVGGEENVAFVDSQGEITTVAVHGGGILSTASDGKRLVMGGDDGKVVSLDAKGEVTLLATDPKRRWIDAVALHADGAFAWSAGKTATVKSGKTEEKSLEVPSTVGGLAFAPKGLRLAIAHYNGATLWFPNMAASAEFLPWAGSHHAVTFSPDNKFLVTAMHEPALHGWRLADNRHMRMTGYPGRVRSMSWSAGGKALATSGADTVILWPFGSKDGPMGKEPAMLAPLQARVSVVACHPKNDILAAGYSDGTVLMVRLEDGAEILVRRNGTPPVAALAWNAKGTLLAFADENGDGGLLELLEHHHHHH | soluble
MKTKEDMQELYFPTPKLIEWENGVRQYSTVRGDTEVLMSYVPPHTNVEPHQHKEVQIGMVVSGELMMTVGDVTRKMTALESAYIAPPHVPHGARNDTDQEVIAIDIKRLKADETYTSPEDYFLDIFKTRDLLPGMEVTFFVEDWVEIMLAKIPGNGGEMPFHKHRNEQIGICIGGGYDMTVEGCTVEMKFGTAYFCEPREDHGAINRSEKESKSINIFFPPRYNRAKAKKMKADELEHHHHHH | soluble
MSLSSGEHEASRVLRERDYRWEGTEEEAYKAEGTHFSGARRQTLVGRPAGQEAPAFETRYFEVEPGGYTTLERHEHTHVVMVVRGHAEVVLDDRVEPLTPLDCVYIAPHAWHQIHATGANEPLGFLCIVDSDRDRPQRPDADDLARMCADPAVARRIRTEGHHHHHH | soluble
MYILLCCAAGMSTSMVVRKMQEEAKKQGKDYKIKAVDSELVKLEIKNADVVLIGPQVKYLFPAVQFLAKSYDIPVAIIEQRDYGMCDGLKVLKQAEQLVLA | not soluble
MGSDKIHHHHHHMSFTVATIAREPWPVLNRFLTWHLDQGAERIILYLDDPDDPSLPRLRGEPRIDARPCTPAFWRQIGLKQDARFTRRQRGVLSQAYHELEDGWLLVLDADEMMWMSGRTIPEALATLPDEAQSLRVRSAEQVRLSDGSEAFRTPIERAAVDRVYGDLSGLLRARFGFTYHPEGKSFHRAGQRLNMKLHWAQDANGDRTPGPVWGRAERAYLMHYAAPDYARWRAKVNWRAGASGFVLPVKEQITEIAESNDPEAGYQDLYRTLHGLTDAQALALEAEGGLLRDGPKVLDLGG | not soluble
GRVESVWDLKGVWADQAQSDSQGSTTTATRNALPEHPNALAFQVSVVEASAYKPNTSSGQTQSTNSSPYLHLVKPKKVTQSDKLDDDLKNLLDPNQVRTKLRQSFGTDHSTQPQPQSLKTTTPVFGTSSGNLSSVLSGGGAGGGSSGSGQSGVDLSPVEKVSGWLVGQLPSTSDGNTSSTNNLAPNTNTGNDVVGVGRLSESNAAKMNDDVDGIVRTPLAELLDGEGQTADTGPQSVKFKSPDQIDFNRLFTHPVTDLFDPVTMLVYDQYIPLFIDIPASVNPKMVRLKVLSFDTNEQSLGLRLEFFKPDQDTQPNNNVQVNPNNGDFLPLLTASSQGPQTLFSPF | soluble
MHHHHHHQYKLALNGKTLKGETTTEAVDAATAEKVFKQYANDNGVDGEWTYDDATKTFTVTEGSQWQPQLQQLRDMGIQDDELSLRALQATGGDIQAALELIFAGGAP | soluble
MGVEKTIVGIAGKIAAGKTTVAKFLEELGFCRISCSEPLLDILTGNVSEYSWVPEVNFKGEPTRENLIELGRLLKEKYGEDILIRLAIDKLRRCKNIAIDGVRSLGEVEAIKRMGGIIIYIEARAEVRFERLRKRCSEKDRGIKTLQDLLRFDEWEERLYSTTNIKEKADFVILNEGSLEELKKKVREILREHSN | not soluble
MSLNREAQGSQEGVRIRKARAQDIPIVMEINLESLPENYWYGFYKYILDNWGEAFLVAEVGGEIVGYAMSRVEQTSDPVLLGMKDELEGDKSVIDKILDAIRNQLSEERPVGHLVSIAVRPGFRGRGIGSKLLSATVRVMKNVYRVDAIFLEVRVSNMPAIRLYEKFGFRKVRRIKGYYRDGEDAFVMVKRLLEGHHHHHH | soluble
MGSDKIHHHHHHMKVQFLGAAQTVTGSCYMIEANGVRFAIDCGMHQGNTEIEKRNDDTEIYRPSDIAFFLVTHAHIDHTGLLPAMTRNGFTGPIYCTEPTADLLGIMLQDSAHIQEMEAEWQSRKLSRNGRIKKVEPLYTTEDATRAAEMLRPVDYGNSFEPSPGIRVTYKDAGHILGSAFLELEVTENGRPTRLVFSGDLGRPDALIVNDPQKAAPADYLFLESTYGDRDHKDPRFSRDELAEAIAYSYGNGEKVIIPAFAVERTQEVLYTLYLLHKEGRLPADMPVFVDSPLAIRATEIFRKHPKYYDDNMKKLVDSGEDPLALPNLKYTLNTQDSQALNVRSGPAVIISASGMCNAGRIKHHLRHNLWRPGASIVFVGYQGVGTPGRKIVDGNATVRLFNEDIAVKAKVFTIGSFSAHAGQSQILEWVSAFAHPQMEVFLVHGEEKAQTTLAGLLRERFNLPVSIPGYLEEVTLKPGRESLHQTDEARAHPDVDWEFLLAETEGKVAQLRKRLAGVEKRPWVEQTDIRERLVEINGELLHFLSQL | not soluble
MKEKVSMVSLGCPKNLVDAEVMLGCLAKDQYEITTDEHEADIIIVNTCSFIGDAKKESIDTILDLADRKHDGRCKLLVVTGCLPQRYQEELATELPEVDIFVGTADYPRIAEIIAEKRGVAEQLRYISDPNYIFDESLPRLKSSPAYTAYLKIAEGCSNCCSYCVIPSLRGALRSRPLDNLLMEARTLVATGTREINLIAQDITAWGRDLPGSPTLEELVRELAKIVGLRWIRLLYAYPDGITDGLIEIIKTEPKVCKYLDIPIQHISDPVLKRMNRRSTEPQIRALIAKIRAEIPEIALRTSLIVGFPGETEEDFRTLLHYVEETQFDRLGVFCYSREEGTPAAGMEDQVSERVKRDRYKKLMKVQARLSFKRNRRLIDTEEEVIVEGYSDETDLLLKGRSSRQAPDIDGQVYITAGNANVGDIVRLRITDSSDYDLIGEIVEELEHHHHHH | soluble
MNLIDNHIHTNFSSDGKDSMEDTIKKAISIGVRYLTFTDHLEHDEDRGFCINYNDYVPVFNKFKEKYKKDIELLLGVEVGYRKHLKNEIEEIINSNPFDFVLCSTHTIDNVPVPSKAYFKGLSKEDAYYKYFNSILETNREFGDYNIYGHLDYISRYGIYSDNRVIYNDFKDVIDEVLKSIINNGSGIELNTSGYRYGLNAIHPNEDILKRYKELGGFIVTVGSDSHRVEDICKDFDVAYDMLKYLDFKYVSLFKERETYFVNIEKVKSNNIA | not soluble
MVPCWNHGNITRSKAEELLSRTGKDGSFLVRASESISRAYALCVLYRNCVYTYRILPNEDDKFTVQASEGVSMRFFTKLDQLIEFYKKENMGLVTHLQYPVPLEEEDTGDDPEEDTVESVVSPPELPPRNIPLTASSCEAKEVPFSNENPRATETSRPSLSETLFQRLQSMDTSGLPEEHLKAIQDYLSTQLAQDSEFVKTGSSSLPHLKKLTTLLCKELYGEVIRTLPSLESLQRLFDQQLSPGLRPRPQVKG | soluble
MFLNSLDLPGQPENSRIVVAMSGGVDSSVVAGLLKKEGYDVIGITLQLYDHGAATHRVGACCAGQDIEDARCVAETLGIPHYVLDYEERFREAVIDPFAASYAHGETPVPCIACNQTVKFADLLATARELDADALATGHYIRSRSHGAHRALFRPLDSDRDQSYFLFATTQEQIDYLRFPLGDLPKARVREMATEMGFVVANKHDSQDICFVPQGKYSDIITKLRPEAVNPGVIVHVDGQVLGKHSGIVHYTVGQRRGIGVATGEALYVVYLDVENARVIVGPREMLETHKLFLRDVNWLGDERLDNFPPDGIEMAVKVRSTRPPHLARLHYQEGVFSVDFLECENSVAPGQACVFYDGNSDGARVLGGGFVTHSERAAETEMMLKRVLCNLETTSAVASEFKTKVSYT | not soluble
MGSSHHHHHHSSGLVPRGSMSTSWSDRLQNAADMPANMDKHALKKYRREAYHRVFVNRSLAMEKIKCFGFDMDYTLAVYKSPEYESLGFELTVERLVSIGYPQELLSFAYDSTFPTRGLVFDTLYGNLLKVDAYGNLLVCAHGFNFIRGPETREQYPNKFIQRDDTERFYILNTLFNLPETYLLACLVDFFTNCPRYTSCETGFKDGDLFMSYRSMFQDVRDAVDWVHYKGSLKEKTVENLEKYVVKDGKLPLLLSRMKEVGKVFLATNSDYKYTDKIMTYLFDFPHGPKPGSSHRPWQSYFDLILVDARKPLFFGEGTVLRQVDTKTGKLKIGTYTGPLQHGIVYSGGSSDTICDLLGAKGKDILYIGDHIFGDILKSKKRQGWRTFLVIPELAQELHVWTDKSSLFEELQSLDIFLAELYKHLDSSSNERPDISSIQRRIKKVTHDMDMCYGMMGSLFRSGSRQTLFASQVMRYADLYAASFINLLYYPFSYLFRAAHVLMPHESTVEHTHVDINEMESPLATRNRTSVDFKDTDYKRHQLTRSISEIKPPNL | soluble
